This test concerns the target SARS-CoV-2 Spike RBD-His (Cat #: 40592-V08B) (SARS-CoV-2), P0DTC2.

As for CIEEQAKTFLDKFNHEAEDLFYQS (modifications not checked) [Cys-SBP-PEG4], the N:Au ratio (XPS) after RBD binding amounted to 1.45.

In the case of CIEEQAKTFLDKFNHEAEDLFYQS (modifications not checked) [Cys-SBP], the N:Au ratio (XPS) after RBD binding came out at 1.31.

The values above are taken from patent US20240369491A1.
